# In patent US20240270846A1 (published 2024):
# Numbering of substitutions follows the chain as printed. In names and notes the source's numbering stands.
# B1: CE115HA000 D101A one-arm antibody (antibody, human IgG1, kappa, L234A L235A, N297A, name in Kabat numbering)
# heavy: QVQLVESGGGVVQPGRSLRLSCAASGFTFSNAWMHWVRQAPGKGLEWVAQIKAKSNNYATYYAESVKGRFTISRDDSKNSLYLQMNSLKTEDTAVYYCRYVHYGAYYGVAAWGQGTTVTVSSASTKGPSVFPLAPSSKSTSGGTAALGCLVKDYFPEPVTVSWNSGALTSGVHTFPAVLQSSGLYSLSSVVTVPSSSLGTQTYICNVNHKPSNTKVDKKVEPKSCDKTHTCPPCPAPEAAGGPSVFLFPPKPKDTLMISRTPEVTCVVVDVSHEDPEVKFNWYVDGVEVHNAKTKPREEQYASTYRVVSVLTVLHQDWLNGKEYKCKVSNKALPAPIEKTISKAKGQPREPQVYTLPPSRCELTKNQVSLSCAVKGFYPSDIAVEWESNGQPENNYKTTPPVLDSDGSFFLVSKLTVDKSRWQQGNVFSCSVMHEALHNHYTQKSLSLSPDYKDDDDK
# chain: EPKSSDKTHTCPPCPAPELLGGPSVFLFPPKPKDTLMISRTPEVTCVVVDVSHEDPEVKFNWYVDGVEVHNAKTKPREEQYNSTYRVVSVLTVLHQDWLNGKEYKCKVSNKALPAPIEKTISKAKGQPREPQVCTLPPSRDELTKNQVSLWCLVKGFYPSDIAVEWESNGQPENNYKTTPPVLDSDGSFFLYSKLTVDKSRWQQGNVFSCSVMHEALHNRYTQKSLSLSP
# light: DIVMTQSPLSLPVTPGEPASISCRSSQSLVHSNRNTYLHWYQQKPGQAPRLLIYKVSNRFSGVPDRFSGSGSGTDFTLKISRVEAEDVGVYYCGQGTQVPYTFGQGTKLEIKRTVAAPSVFIFPPSDEQLKSGTASVVCLLNNFYPREAKVQWKVDNALQSGNSQESVTEQDSKDSTYSLSSTLTLSKADYEKHKVYACEVTHQGLSSPVTKSFNRGEC
# notes: one-arm antibody
# B2: CE115HA000 D73G one-arm antibody (antibody, human IgG1, kappa, L234A L235A, N297A, name in Kabat numbering)
# heavy: B1 heavy with D76G, A110D
# chain: B1 chain
# light: B1 light
# notes: one-arm antibody
# B3: CE115HA000 A102Y one-arm antibody (antibody, human IgG1, kappa, L234A L235A, N297A, name in Kabat numbering)
# heavy: B1 heavy with A110D, A111Y
# chain: B1 chain
# light: B1 light
# notes: one-arm antibody
# B4: CE115HA000 A102P one-arm antibody (antibody, human IgG1, kappa, L234A L235A, N297A, name in Kabat numbering)
# heavy: B1 heavy with A110D, A111P
# chain: B1 chain
# light: B1 light
# notes: one-arm antibody
# B5: CE115HA000 A99L one-arm antibody (antibody, human IgG1, kappa, L234A L235A, N297A, name in Kabat numbering)
# heavy: B1 heavy with A105L, A110D
# chain: B1 chain
# light: B1 light
# notes: one-arm antibody
# B6: CE115HA000 A102I one-arm antibody (antibody, human IgG1, kappa, L234A L235A, N297A, name in Kabat numbering)
# heavy: B1 heavy with A110D, A111I
# chain: B1 chain
# light: B1 light
# notes: one-arm antibody
# B7: CE115HA000 A99D one-arm antibody (antibody, human IgG1, kappa, L234A L235A, N297A, name in Kabat numbering)
# heavy: B1 heavy with A105D, A110D
# chain: B1 chain
# light: B1 light
# notes: one-arm antibody
# B8: CE115HA000 D72V one-arm antibody (antibody, human IgG1, kappa, L234A L235A, N297A, name in Kabat numbering)
# heavy: B1 heavy with D75V, A110D
# chain: B1 chain
# light: B1 light
# notes: one-arm antibody
# B9: CE115HA000 A99T one-arm antibody (antibody, human IgG1, kappa, L234A L235A, N297A, name in Kabat numbering)
# heavy: B1 heavy with A105T, A110D
# chain: B1 chain
# light: B1 light
# notes: one-arm antibody
# B10: CE115HA000 A102V one-arm antibody (antibody, human IgG1, kappa, L234A L235A, N297A, name in Kabat numbering)
# heavy: B1 heavy with A110D, A111V
# chain: B1 chain
# light: B1 light
# notes: one-arm antibody
# B11: CE115HA000 A99F one-arm antibody (antibody, human IgG1, kappa, L234A L235A, N297A, name in Kabat numbering)
# heavy: B1 heavy with A105F, A110D
# chain: B1 chain
# light: B1 light
# notes: one-arm antibody
# B12: CE115HA000 A99Q one-arm antibody (antibody, human IgG1, kappa, L234A L235A, N297A, name in Kabat numbering)
# heavy: B1 heavy with A105Q, A110D
# chain: B1 chain
# light: B1 light
# notes: one-arm antibody
# B13: CE115HA000 A99K one-arm antibody (antibody, human IgG1, kappa, L234A L235A, N297A, name in Kabat numbering)
# heavy: B1 heavy with A105K, A110D
# chain: B1 chain
# light: B1 light
# notes: one-arm antibody
# B14: CE115HA000 A99Y one-arm antibody (antibody, human IgG1, kappa, L234A L235A, N297A, name in Kabat numbering)
# heavy: B1 heavy with A105Y, A110D
# chain: B1 chain
# light: B1 light
# notes: one-arm antibody
# B15: CE115HA000 D73A one-arm antibody (antibody, human IgG1, kappa, L234A L235A, N297A, name in Kabat numbering)
# heavy: B1 heavy with D76A, A110D
# chain: B1 chain
# light: B1 light
# notes: one-arm antibody
# B16: CE115HA000 D72A one-arm antibody (antibody, human IgG1, kappa, L234A L235A, N297A, name in Kabat numbering)
# heavy: B1 heavy with D75A, A110D
# chain: B1 chain
# light: B1 light
# notes: one-arm antibody
# B17: CE115HA000 A99S one-arm antibody (antibody, human IgG1, kappa, L234A L235A, N297A, name in Kabat numbering)
# heavy: B1 heavy with A105S, A110D
# chain: B1 chain
# light: B1 light
# notes: one-arm antibody
# B18: CE115HA000 D72E one-arm antibody (antibody, human IgG1, kappa, L234A L235A, N297A, name in Kabat numbering)
# heavy: B1 heavy with D75E, A110D
# chain: B1 chain
# light: B1 light
# notes: one-arm antibody
# B19: CE115HA000 D73E one-arm antibody (antibody, human IgG1, kappa, L234A L235A, N297A, name in Kabat numbering)
# heavy: B1 heavy with D76E, A110D
# chain: B1 chain
# light: B1 light
# notes: one-arm antibody
# B20: CE115HA000 Y100S one-arm antibody (antibody, human IgG1, kappa, L234A L235A, N297A, name in Kabat numbering)
# heavy: B1 heavy with Y106S, A110D
# chain: B1 chain
# light: B1 light
# notes: one-arm antibody (one Fab)
# B21: CE115HA000 Y100aF one-arm antibody (antibody, human IgG1, kappa, L234A L235A, N297A, name in Kabat numbering)
# heavy: B1 heavy with Y107F, A110D
# chain: B1 chain
# light: B1 light
# notes: one-arm antibody (one Fab)
# B22: CE115HA000 Y100aA one-arm antibody (antibody, human IgG1, kappa, L234A L235A, N297A, name in Kabat numbering)
# heavy: B1 heavy with Y107A, A110D
# chain: B1 chain
# light: B1 light
# notes: one-arm antibody (one Fab)
# B23: CE115HA000 Y100V one-arm antibody (antibody, human IgG1, kappa, L234A L235A, N297A, name in Kabat numbering)
# heavy: B1 heavy with Y106V, A110D
# chain: B1 chain
# light: B1 light
# notes: one-arm antibody (one Fab)
# B24: CE115HA000 Y100aK one-arm antibody (antibody, human IgG1, kappa, L234A L235A, N297A, name in Kabat numbering)
# heavy: B1 heavy with Y107K, A110D
# chain: B1 chain
# light: B1 light
# notes: one-arm antibody (one Fab)
# B25: CE115HA000 Y100aQ one-arm antibody (antibody, human IgG1, kappa, L234A L235A, N297A, name in Kabat numbering)
# heavy: B1 heavy with Y107Q, A110D
# chain: B1 chain
# light: B1 light
# notes: one-arm antibody (one Fab)
# B26: CE115HA000 Y100aS one-arm antibody (antibody, human IgG1, kappa, L234A L235A, N297A, name in Kabat numbering)
# heavy: B1 heavy with Y107S, A110D
# chain: B1 chain
# light: B1 light
# notes: one-arm antibody (one Fab)
# B27: CE115HA000 Y100aL one-arm antibody (antibody, human IgG1, kappa, L234A L235A, N297A, name in Kabat numbering)
# heavy: B1 heavy with Y107L, A110D
# chain: B1 chain
# light: B1 light
# notes: one-arm antibody (one Fab)
# B28: CE115HA000 Y100W one-arm antibody (antibody, human IgG1, kappa, L234A L235A, N297A, name in Kabat numbering)
# heavy: B1 heavy with Y106W, A110D
# chain: B1 chain
# light: B1 light
# notes: one-arm antibody (one Fab)
# B29: CE115HA000 Y100aG one-arm antibody (antibody, human IgG1, kappa, L234A L235A, N297A, name in Kabat numbering)
# heavy: B1 heavy with Y107G, A110D
# chain: B1 chain
# light: B1 light
# notes: one-arm antibody (one Fab)
# B30: CE115HA000 Y100aD one-arm antibody (antibody, human IgG1, kappa, L234A L235A, N297A, name in Kabat numbering)
# heavy: B1 heavy with Y107D, A110D
# chain: B1 chain
# light: B1 light
# notes: one-arm antibody (one Fab)
# Biological target: T1, CD3 epsilon homodimer protein (UniProt P07766 23-126)
# T1 construct: Construct of the homodimer protein is not described; also called CD3 (CD3 epsilon)
# Assay: SPR (Biacore T200), CD3 epsilon homodimer on CM4 chip, one-arm antibody as analyte; ratio to unaltered CE115HA000;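 also: surface plasmon resonance run at 25 °C with HBS-EP+ as running buffer, CD3 epsilon homodimer attached by amine coupling, antibody passed over as analyte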
row,Binder,KD ratio (KD value of CE115HA000/KD value of the altered form)
1,B1,0.86
2,B2,0.78
3,B3,1
4,B4,3.51
5,B5,1
6,B6,1.29
7,B7,1.03
8,B8,1.17
9,B9,0.93
10,B10,1.27
11,B11,1.15
12,B12,0.85
13,B13,1.4
14,B14,1.25
15,B15,0.73
16,B16,1.19
17,B17,0.76
18,B18,0.73
19,B19,0.56

# Biological target: T2, CD3 epsilon homodimer protein (UniProt P07766 23-126)
# T2 construct: Immobilized on Sensor chip CM4 by amine coupling; construct not described; also called CD3 (CD3 epsilon)
# Assay: SPR Biacore T200, CD3 epsilon homodimer on CM4 chip, antibody as analyte;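 also: Amine-coupled CD3 epsilon homodimer, run at 25 °C in HBS-EP+ buffer, ratio is bound amount of each single-residue H chain variant over that of the parent antibody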
# T2 sequence (P07766 23-126): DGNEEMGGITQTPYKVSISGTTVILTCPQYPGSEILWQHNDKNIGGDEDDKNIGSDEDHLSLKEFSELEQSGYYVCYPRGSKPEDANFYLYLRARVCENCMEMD
row,Binder,ratio of amounts bound (Y/X vs CE115HA000)
1,B20,0.81
2,B21,0.87
3,B22,0.62
4,B23,0.6
5,B24,0.9
6,B25,0.56
7,B26,0.64
8,B27,0.48
9,B28,1.03
10,B29,1.23
11,B30,0.31
